Kd data for 5 molecules are collected here from patent US20210095014A1 (NGM BIOPHARMACEUTICALS, published 2021).

Residue numbers refer to the chain shown, from its start.

Test [1] concerns the target T1, SE1 peptide of cynomolgus monkey ANGPTL8 (amino acids 25-60) (cynomolgus monkey).
T1 construct: also called cSE1; cSE1 peptide
T1 peptide: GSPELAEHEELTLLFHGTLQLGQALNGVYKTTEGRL
The test is described as follows: BIACORE (SPR), antibody from hybridoma supernatant captured by anti-mouse Fc, peptide injected, 25 C. Here is the method: (§1) The binding affinities of antibodies 1E5, 1A8, and 1E9 to human ANGPTL8 were measured using a BIACORE system (GE Healthcare LifeSciences). Briefly, anti-mouse Fc antibody (Sigma-Aldrich) was immobilized on all four flow cells of a CM5 chip using amine coupling reagents (GE Healthcare LifeSciences). Antibody from hybridoma supernatants were captured on flow cells 2, 3, and 4 using flow cell 1 as a reference. The SE1 peptide of human ANGPTL8 (hSE1; SEQ ID NO:6), a corresponding SE1 peptide of cynomolgus monkey ANGPTL8 (cSE1; SEQ ID NO:67), or human ANGPTL8 was injected at a flow rate of 50 μL/min at 25° C. Kinetic data were collected over time and fit using the simultaneous global fit equation to yield affinity constants (KD values) for each antibody.
(§2) Assay results are shown in Table 4 and the BIACORE result for 1E5 binding to hANGPTL8 (NusA-hANGPTL8 fusion protein) is shown in FIG. 4.

Test [2] concerns the target T2, SE1 peptide of human ANGPTL8 (amino acids 25-60) (human).
T2 construct: also called hSE1; hSE1 peptide
T2 peptide: T1 peptide with S2G, E7Q, K30R
Described as above. How it is done:
as §1, §2

The target of test [3] is T3, NusA-hANGPTL8 fusion protein (human, UniProt Q6UXH0 22-198).
T3 construct: Expressed in E. coli BL21 and captured on a chelating Sepharose column; also called hANGPTL8 (NusA-hANGPTL8 fusion protein); not shown: bacterial NusA protein, fusion partner
T3 sequence: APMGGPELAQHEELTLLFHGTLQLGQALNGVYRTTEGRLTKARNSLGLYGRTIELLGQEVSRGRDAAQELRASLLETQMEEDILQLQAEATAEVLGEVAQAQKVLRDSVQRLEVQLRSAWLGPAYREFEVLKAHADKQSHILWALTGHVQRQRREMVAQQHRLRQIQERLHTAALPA
The test is described as follows: BIACORE (SPR), antibody from hybridoma supernatant captured by anti-mouse Fc, NusA-hANGPTL8 injected, 25 C. How it is done:
as §1, §2

For test [4], the target named is T2, SE1 peptide of human ANGPTL8 (amino …). The test is described as follows: BIACORE (SPR); chimeric 1E5 (murine variable regions, human Fc).
For test [5] the target is unchanged. The test is described as follows: BIACORE (SPR); humanized antibody Hz1E5.

B1: anti-ANGPTL8 antibody 1E5 (antibody, V domains shown)
VH: QVQLQQSGAELVKPGTSVRLSCKASGYTFTDYTIHWVKLRSGQGLEWIGWFYPGSDNIKYNAKFKDKATLTADKSSSTVYMDLGRLTSEDSAVYFCARHEAFSYYDVAWFAYWGQGTLVTVSA
VL: DVVMTQTPLSLPVSLGDQASISCRSSQSLVHSNGNTYLHWYLQKPGQSPKLLIYTVSNRFSGVPDRFSGSGSGSDFTLNFSRVEAEDLGVYFCSQTTHFPYTFGGGTKLEIK
notes: Mouse monoclonal antibody, tested from hybridoma supernatant and captured by anti-mouse Fc; also called parental 1E5 from hybridoma
With B1, the equilibrium dissociation constant (Kd) in test [1] was determined as 0.67 nM; in test [2], 0.41 nM; in test [3], 0.44 nM.

B2: chimeric 1E5 antibody (antibody, V domains shown)
VH: B1 VH
VL: B1 VL
notes: Contains 'the murine variable regions of 1E5 and a human Fc region'; also called chimeric antibody 1E5
In test [4], B2 gave a Kd of 0.35 nM.

B3: anti-ANGPTL8 antibody 1A8 (antibody, V domains shown)
VH: B1 VH with T16A, R19K, L39Q, A62E, T78I, D82E, G84S, F102Y, S103Y, Y104V
VL: B1 VL with R24S, Y37F, Y41F, K44R, S74T, N79K, F80I, T96S, K108T
notes: Mouse monoclonal antibody, tested from hybridoma supernatant and captured by anti-mouse Fc
In the case of B3, the dissociation constant (Kd) in test [1] worked out at 1.04 nM; in test [2], 0.8 nM; in test [3], 2.5 nM.

B4: anti-ANGPTL8 antibody 1E9 (antibody, V domains shown)
VH: QVQLQQSGTELVKPGASVKLSCKASGYTFTDYTIHWVKQRSGQGLEWIGWFYPGSDNIKFNAKFRDKATLTADKSSSTVYMELSRLTSEDSAVYFCARHEAFYVYDVAWFANWGQGTLVTVST
VL: B1 VL with Y41F, K50N, S74T, N79K, F80I, E86G, T96S
notes: as for B3
For B4, the Kd in test [1] came out at 1.8 nM; in test [2], 0.92 nM; in test [3], 2.1 nM.

B5: humanized anti-ANGPTL8 antibody Hz1E5 (antibody, human IgG1, kappa, V domains shown)
VH: EVQLVQSGAEVKKPGSSVKVSCKASGYTFTDYTIHWVRQAPGQGLEWMGWFYPGSDNIKYNAKFKDRATLTADKSTSTAYMELSSLRSEDTAVYYCARHEAFSYYDVAWFAYWGQGTLVTVSS
VL: DVVMTQTPLSLPVTPGEPASISCRSSQSLVHSNGNTYLHWYLQKPGQSPQLLIYTVSNRFSGVPDRFSGSGSGSDFTLKISRVEAEDVGVYFCSQTTHFPYTFGQGTKVEIKR
notes: also called Hz1E5.A1
Turning to B5, the dissociation constant (Kd) in test [5] turned out to be 0.9 nM.
